Publication PMC11853200
Values belong to the substance of their own block, whether it stands above or below them.

What was measured:
[1] = biological target: MotS_(68–242)(E75A) (Bacillus subtilis); assay: SEC; Superdex 75 10/300 GL, 20 mM Tris-HCl pH 8.0 with 300 mM NaCl, 0.6 mL/min; size markers ovalbumin (43 kDa) and IgG (158 kDa)
[2] = biological target: MotS_(68–242)(D70A) (Bacillus subtilis); assay: as above
[3] = biological target: MotS_(68–242)(D70A/E75A) (Bacillus subtilis); assay: as above
[4] = biological target: Bs-MotS_(68–242), periplasmic fragment of the stator B-subunit MotS from Bacillus subtilis (Bacillus subtilis); assay: crystal structure; protein purified in 150 mM NaCl; crystals from 1.26 M ammonium sulfate, 0.1 M HEPES-NaOH pH 7.5, 293 K; solution containing 92 mM NaCl; 1.89 Å
[5] = biological target: Bs-MotS_(68–242), periplasmic fragment of the stator B-subunit MotS from Bacillus subtilis (Bacillus subtilis); assay: SEC; Superdex 75 10/300 GL, 20 mM Tris-HCl pH 8.0 with 300 mM NaCl, 0.6 mL/min; size markers ovalbumin (43 kDa) and IgG (158 kDa)
[6] = biological target: Bs-MotS_(68–242), periplasmic fragment of the stator B-subunit MotS from Bacillus subtilis (Bacillus subtilis); assay: crystal structure; protein purified in 300 mM KCl; crystals from 40% PEG-300, 0.1 M Na2HPO4/citric acid pH 4.2, 293 K; soaked in 40 mM NaCl/300 mM KCl; 1.90 Å
[7] = biological target: Bs-MotS_(68–242), periplasmic fragment of the stator B-subunit MotS from Bacillus subtilis (Bacillus subtilis); assay: SEC; Superdex 75 10/300 GL, 20 mM Tris-HCl pH 8.0 with 300 mM KCl (no Na+), 0.6 mL/min; size markers ovalbumin (43 kDa) and IgG (158 kDa)
[8] = biological target: Bs-MotS_(68–242), periplasmic fragment of the stator B-subunit MotS from Bacillus subtilis (Bacillus subtilis); assay: crystal structure; protein purified in 300 mM NaCl; crystals from 20% PEG-8000, 0.1 M HEPES-NaOH pH 7.5, 293 K; soaked in 300 mM NaCl; 1.89 Å

stoichiometry N [1]: 2
Substance: MotS_(68–242)(E75A) (domain or fragment)

stoichiometry N [2]: 2
Substance: MotS_(68–242)(D70A) (domain or fragment)

stoichiometry N [3]: 2
Substance: MotS_(68–242)(D70A/E75A) (domain or fragment)

stoichiometry N [4]: 2 | stoichiometry N [5]: 2 | stoichiometry N [6]: 2 | stoichiometry N [7]: 2 | stoichiometry N [8]: 2
Substance: Bs-MotS_(68–242), periplasmic fragment of the stator B-subunit MotS from Bacillus subtilis (domain or fragment)
